{"source": "patent US20230220589A1", "binders": {"B1": {"name": "engineered M44-A binder (SEQ ID NO: 42) (designed binder, not shown: small tags and cut ends; large carriers)", "chain": "QVSVQPNFQQDKFLGRWFVAGLASNSSWDREKVAALSGAKMVVAPATDGGLNVTRTMLRKNQCETYTGLLQPAGSLGSYSWRSPHPGSTGSESVVETDYDQYALVYGQGSKGPGEDLRAAALWSRTQTPRAELKEKFTAFSKAQGFTEDTIVFLPQTDKCMTEQ"}}, "key": {"[1]": {"target": "M44-modified A NTAA target peptides (M44-A-P2-peptide)", "assay": "encoding assay; P2 E"}, "[2]": {"target": "M44-modified D NTAA target peptides", "assay": "encoding assay; P2 E"}, "[3]": {"target": "M44-modified E NTAA target peptides", "assay": "encoding assay; P2 E"}, "[4]": {"target": "M44-modified F NTAA target peptides (M44-F-P2-peptide)", "assay": "encoding assay; P2 E"}, "[5]": {"target": "M44-modified H NTAA target peptides", "assay": "encoding assay; P2 E"}, "[6]": {"target": "M44-modified I NTAA target peptides (M44-I-P2-peptide)", "assay": "encoding assay; P2 E"}, "[7]": {"target": "M44-modified L NTAA target peptides (M44-L-P2-peptide)", "assay": "encoding assay; P2 E"}, "[8]": {"target": "M44-modified M NTAA target peptides", "assay": "encoding assay; P2 E"}, "[9]": {"target": "M44-modified N NTAA target peptides", "assay": "encoding assay; P2 E"}, "[10]": {"target": "M44-modified P NTAA target peptides", "assay": "encoding assay; P2 E"}, "[11]": {"target": "M44-modified Q NTAA target peptides", "assay": "encoding assay; P2 E"}, "[12]": {"target": "M44-modified S NTAA target peptides", "assay": "encoding assay; P2 E"}, "[13]": {"target": "M44-modified T NTAA target peptides", "assay": "encoding assay; P2 E"}, "[14]": {"target": "M44-modified V NTAA target peptides", "assay": "encoding assay; P2 E"}, "[15]": {"target": "M44-modified W NTAA target peptides", "assay": "encoding assay; P2 E"}, "[16]": {"target": "M44-modified Y NTAA target peptides (M44-Y-P2-peptide)", "assay": "encoding assay; P2 E"}, "[17]": {"target": "M44-modified A NTAA target peptides (M44-A-P2-peptide)", "assay": "encoding assay; P2 S"}, "[18]": {"target": "M44-modified F NTAA target peptides (M44-F-P2-peptide)", "assay": "encoding assay; P2 S"}, "[19]": {"target": "M44-modified G NTAA target peptides (M44-G-P2-peptide)", "assay": "encoding assay; P2 S"}, "[20]": {"target": "M44-modified H NTAA target peptides", "assay": "encoding assay; P2 S"}, "[21]": {"target": "M44-modified I NTAA target peptides (M44-I-P2-peptide)", "assay": "encoding assay; P2 S"}, "[22]": {"target": "M44-modified L NTAA target peptides (M44-L-P2-peptide)", "assay": "encoding assay; P2 S"}, "[23]": {"target": "M44-modified M NTAA target peptides", "assay": "encoding assay; P2 S"}, "[24]": {"target": "M44-modified P NTAA target peptides", "assay": "encoding assay; P2 S"}, "[25]": {"target": "M44-modified Q NTAA target peptides", "assay": "encoding assay; P2 S"}, "[26]": {"target": "M44-modified T NTAA target peptides", "assay": "encoding assay; P2 S"}, "[27]": {"target": "M44-modified V NTAA target peptides", "assay": "encoding assay; P2 S"}, "[28]": {"target": "M44-modified Y NTAA target peptides (M44-Y-P2-peptide)", "assay": "encoding assay; P2 S"}, "[29]": {"target": "M44-modified A NTAA target peptides (M44-A-P2-peptide)", "assay": "encoding assay; P2 A"}, "[30]": {"target": "M44-modified H NTAA target peptides", "assay": "encoding assay; P2 A"}, "[31]": {"target": "M44-modified I NTAA target peptides (M44-I-P2-peptide)", "assay": "encoding assay; P2 A"}, "[32]": {"target": "M44-modified L NTAA target peptides (M44-L-P2-peptide)", "assay": "encoding assay; P2 A"}, "[33]": {"target": "M44-modified M NTAA target peptides", "assay": "encoding assay; P2 A"}, "[34]": {"target": "M44-modified N NTAA target peptides", "assay": "encoding assay; P2 A"}, "[35]": {"target": "M44-modified Q NTAA target peptides", "assay": "encoding assay; P2 A"}, "[36]": {"target": "M44-modified V NTAA target peptides", "assay": "encoding assay; P2 A"}, "[37]": {"target": "M44-modified W NTAA target peptides", "assay": "encoding assay; P2 A"}, "[38]": {"target": "M44-modified A NTAA target peptides (M44-A-P2-peptide)", "assay": "encoding assay; P2 Y"}, "[39]": {"target": "M44-modified D NTAA target peptides", "assay": "encoding assay; P2 Y"}, "[40]": {"target": "M44-modified E NTAA target peptides", "assay": "encoding assay; P2 Y"}, "[41]": {"target": "M44-modified F NTAA target peptides (M44-F-P2-peptide)", "assay": "encoding assay; P2 Y"}, "[42]": {"target": "M44-modified G NTAA target peptides (M44-G-P2-peptide)", "assay": "encoding assay; P2 Y"}, "[43]": {"target": "M44-modified H NTAA target peptides", "assay": "encoding assay; P2 Y"}, "[44]": {"target": "M44-modified I NTAA target peptides (M44-I-P2-peptide)", "assay": "encoding assay; P2 Y"}, "[45]": {"target": "M44-modified L NTAA target peptides (M44-L-P2-peptide)", "assay": "encoding assay; P2 Y"}, "[46]": {"target": "M44-modified M NTAA target peptides", "assay": "encoding assay; P2 Y"}, "[47]": {"target": "M44-modified N NTAA target peptides", "assay": "encoding assay; P2 Y"}, "[48]": {"target": "M44-modified P NTAA target peptides", "assay": "encoding assay; P2 Y"}, "[49]": {"target": "M44-modified T NTAA target peptides", "assay": "encoding assay; P2 Y"}, "[50]": {"target": "M44-modified W NTAA target peptides", "assay": "encoding assay; P2 Y"}, "[51]": {"target": "M44-modified Y NTAA target peptides (M44-Y-P2-peptide)", "assay": "encoding assay; P2 Y"}}, "data": [{"binder": "B1", "values": [{"measurement": "encoding yield", "setting": "[1]", "value": 0.05}, {"measurement": "encoding yield", "setting": "[2]", "value": 0.03}, {"measurement": "encoding yield", "setting": "[3]", "value": 0.02}, {"measurement": "encoding yield", "setting": "[4]", "value": 0.02}, {"measurement": "encoding yield", "setting": "[5]", "value": 0.03}, {"measurement": "encoding yield", "setting": "[6]", "value": 0.02}, {"measurement": "encoding yield", "setting": "[7]", "value": 0.04}, {"measurement": "encoding yield", "setting": "[8]", "value": 0.01}, {"measurement": "encoding yield", "setting": "[9]", "value": 0.02}, {"measurement": "encoding yield", "setting": "[10]", "value": 0.05}, {"measurement": "encoding yield", "setting": "[11]", "value": 0.03}, {"measurement": "encoding yield", "setting": "[12]", "value": 0.02}, {"measurement": "encoding yield", "setting": "[13]", "value": 0.03}, {"measurement": "encoding yield", "setting": "[14]", "value": 0.06}, {"measurement": "encoding yield", "setting": "[15]", "value": 0.04}, {"measurement": "encoding yield", "setting": "[16]", "value": 0.06}, {"measurement": "encoding yield", "setting": "[17]", "value": 0.1}, {"measurement": "encoding yield", "setting": "[18]", "value": 0.03}, {"measurement": "encoding yield", "setting": "[19]", "value": 0.05}, {"measurement": "encoding yield", "setting": "[20]", "value": 0.01}, {"measurement": "encoding yield", "setting": "[21]", "value": 0.03}, {"measurement": "encoding yield", "setting": "[22]", "value": 0.05}, {"measurement": "encoding yield", "setting": "[23]", "value": 0.05}, {"measurement": "encoding yield", "setting": "[24]", "value": 0.01}, {"measurement": "encoding yield", "setting": "[25]", "value": 0.03}, {"measurement": "encoding yield", "setting": "[26]", "value": 0.06}, {"measurement": "encoding yield", "setting": "[27]", "value": 0.03}, {"measurement": "encoding yield", "setting": "[28]", "value": 0.06}, {"measurement": "encoding yield", "setting": "[29]", "value": 0.11}, {"measurement": "encoding yield", "setting": "[30]", "value": 0.01}, {"measurement": "encoding yield", "setting": "[31]", "value": 0.05}, {"measurement": "encoding yield", "setting": "[32]", "value": 0.04}, {"measurement": "encoding yield", "setting": "[33]", "value": 0.03}, {"measurement": "encoding yield", "setting": "[34]", "value": 0.02}, {"measurement": "encoding yield", "setting": "[35]", "value": 0.03}, {"measurement": "encoding yield", "setting": "[36]", "value": 0.03}, {"measurement": "encoding yield", "setting": "[37]", "value": 0.03}, {"measurement": "encoding yield", "setting": "[38]", "value": 0.29}, {"measurement": "encoding yield", "setting": "[39]", "value": 0.04}, {"measurement": "encoding yield", "setting": "[40]", "value": 0.02}, {"measurement": "encoding yield", "setting": "[41]", "value": 0.04}, {"measurement": "encoding yield", "setting": "[42]", "value": 0.08}, {"measurement": "encoding yield", "setting": "[43]", "value": 0.07}, {"measurement": "encoding yield", "setting": "[44]", "value": 0.11}, {"measurement": "encoding yield", "setting": "[45]", "value": 0.1}, {"measurement": "encoding yield", "setting": "[46]", "value": 0.06}, {"measurement": "encoding yield", "setting": "[47]", "value": 0.03}, {"measurement": "encoding yield", "setting": "[48]", "value": 0.03}, {"measurement": "encoding yield", "setting": "[49]", "value": 0.1}, {"measurement": "encoding yield", "setting": "[50]", "value": 0.05}, {"measurement": "encoding yield", "setting": "[51]", "value": 0.04}]}]}
